From US20230416394A1 (ELPISCIENCE SUZHOU BIOPHARMA, published 2023)
Each block holds one binder with its values, some of them ahead of it.

How the values were obtained:
human TGFβ1 [1] = biological target: T1, human TGFβ1 (human, UniProt P01137 279-390); test: ELISA, blocking of TGFβRII-His binding to coated TGFβ1
T1 construct: also called TGFβ peptide (TGFβ1); biotinylated TGFβ1
Protocol: For blocking assay, TGFβ peptide (TGFβ1) was coated on microplates. A serial dilution of purified antibodies was incubated with recombinant TGFβRII-His protein (SinoBiological) for 1 h in TGFβ1-coated plates. After wash, the remaining TGFβRII-His was detected by anti-His-HRP conjugated secondary antibody. The values of absorbance at 450 nm were read on a microtiter plate reader (Molecular Devices Corp) for the quantification of TGFβRII-His binding to TGFβ1. All the tested anti-CD39/TGFβ Trap molecules (i.e. ES014-1, ES014-2, ES014-3, ES014-6) could effectively block human TGFβ1 binding to the TGFβ receptor TGFβRII (FIG. 26, Soluble TGFβ trap (i.e. TGFβRII) was used as control). IC 50 values of the anti-CD39/TGFβ Trap molecules were analyzed using GraphPad Prism.

human TGFβ1 [2] = biological target: T1, human TGFβ1; test: ELISA, coated human TGFβ1
Protocol: To determine the binding ability and specificity of the anti-CD39/TGFβ Trap molecules, ELISA assays were conducted using human TGFβ1, human TGFβ2, human TGFβ3 as well as mouse TGFβ1. The tested antigens were coated on NUNC 96-well immunoplate at the concentration of 1 μg/ml. Binding with increasing concentrations of anti-CD39/TGFβ Trap molecules was measured with anti-human Fc antibody horseradish peroxidase conjugate diluted in PBT buffer, then developed with TMB substrate. Soluble TGFβ trap was used as control. As shown in FIGS. 25A-25C, the anti-CD39/TGFβ Trap molecules ES014-1 and ES014-2 bind to all three TGFβ homologues: human TGFβ1, TGFβ2 and TGFβ3. The binding assay results of the other tested anti-CD39/TGFβ Trap molecules (including ES014-3, ES014-4, ES014-5, ES014-6, ES014-7) were similar and not shown herein. Moreover, the anti-CD39/TGFβ Trap molecule ES014-1 binds to mouse TGFβ1 with similar affinity as for human TGFβ1 (FIG. 25D).

cynomolgus CD39 = biological target: T2, cynomolgus CD39 (cynomolgus monkey, UniProt A0A7N9DGH8 1-510); test: FACS, CHO-K1/cynoCD39 cells
T2 construct: whole, on cells; also called cyno CD39; CHOK1-cynoCD39
T2 sequence: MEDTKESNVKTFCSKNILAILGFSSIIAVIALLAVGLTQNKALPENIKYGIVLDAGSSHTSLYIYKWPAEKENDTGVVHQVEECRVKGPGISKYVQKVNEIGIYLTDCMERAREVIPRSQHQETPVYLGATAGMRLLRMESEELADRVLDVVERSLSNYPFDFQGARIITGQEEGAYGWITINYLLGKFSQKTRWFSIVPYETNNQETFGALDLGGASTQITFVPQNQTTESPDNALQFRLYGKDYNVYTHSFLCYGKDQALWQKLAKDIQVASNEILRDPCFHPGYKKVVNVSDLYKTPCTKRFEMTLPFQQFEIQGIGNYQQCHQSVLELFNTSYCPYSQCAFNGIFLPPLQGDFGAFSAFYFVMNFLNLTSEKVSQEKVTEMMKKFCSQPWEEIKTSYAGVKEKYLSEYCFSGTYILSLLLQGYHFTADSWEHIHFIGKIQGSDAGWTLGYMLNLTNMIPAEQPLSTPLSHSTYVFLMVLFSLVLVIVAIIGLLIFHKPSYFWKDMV

human CD39 [3] = biological target: T3, human CD39 (human, UniProt P49961 1-510); test: cell-based or functional assay
T3 sequence: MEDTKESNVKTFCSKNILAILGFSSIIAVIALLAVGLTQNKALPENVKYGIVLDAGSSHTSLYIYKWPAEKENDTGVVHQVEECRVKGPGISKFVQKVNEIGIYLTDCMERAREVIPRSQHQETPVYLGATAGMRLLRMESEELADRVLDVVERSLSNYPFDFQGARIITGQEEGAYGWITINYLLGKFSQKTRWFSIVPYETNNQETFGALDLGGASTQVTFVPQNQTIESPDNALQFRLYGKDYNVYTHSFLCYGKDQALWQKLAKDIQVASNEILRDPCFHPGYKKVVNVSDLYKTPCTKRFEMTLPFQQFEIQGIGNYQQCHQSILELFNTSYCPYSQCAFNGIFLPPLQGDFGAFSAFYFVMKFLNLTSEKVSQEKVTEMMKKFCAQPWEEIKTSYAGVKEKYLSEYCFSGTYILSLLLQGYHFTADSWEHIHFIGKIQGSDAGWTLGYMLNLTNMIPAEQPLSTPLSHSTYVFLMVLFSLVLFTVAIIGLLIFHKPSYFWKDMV

human CD39 [4] = biological target: T3, human CD39; test: FACS, SK-MEL-28 cells
human CD39 [5] = biological target: T3, human CD39; test: FACS, SK-MEL-5 cells
human CD39 [6] = biological target: T3, human CD39; test: FACS, MOLP-8 cells
mouse CD39 = biological target: T4, mouse CD39 (mouse, UniProt P55772 1-510); test: FACS, CHOK1-mCD39 cells
T4 construct: whole, on cells; also called mCD39; CHOK1-mCD39
T4 sequence (looked up): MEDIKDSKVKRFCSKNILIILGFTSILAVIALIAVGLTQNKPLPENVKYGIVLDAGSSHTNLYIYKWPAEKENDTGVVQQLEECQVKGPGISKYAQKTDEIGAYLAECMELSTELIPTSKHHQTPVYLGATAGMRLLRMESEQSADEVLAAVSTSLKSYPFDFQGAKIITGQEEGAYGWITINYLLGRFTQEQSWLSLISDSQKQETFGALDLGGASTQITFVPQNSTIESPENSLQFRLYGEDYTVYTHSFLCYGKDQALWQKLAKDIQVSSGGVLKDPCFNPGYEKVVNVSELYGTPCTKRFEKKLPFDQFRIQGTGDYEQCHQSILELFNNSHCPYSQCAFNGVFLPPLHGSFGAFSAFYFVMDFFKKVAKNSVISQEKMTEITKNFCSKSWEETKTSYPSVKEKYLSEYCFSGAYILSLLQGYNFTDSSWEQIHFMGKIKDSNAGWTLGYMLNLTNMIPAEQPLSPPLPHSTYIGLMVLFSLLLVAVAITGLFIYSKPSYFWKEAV
Source text: FACS were used to determine binding of the antibodies to cell lines expressing CD39 naturally (SK-MEL-28) or recombinantly (CHOK1-hCD39, CHOK1-cynoCD39, and CHOK1-mCD39), or with cells lacking CD39 expression (CHOK1-blank) as a negative control.
CHOK1-hCD39, CHOK1-cCD39, CHOK1-mCD39 and CHOK1-blank cells were maintained in culture medium according to ATCC procedure. Cells were collected and re-suspended in blocking buffer at a density of 3×10⁶ cells/ml. […] The plates were washed with FACS buffer, and cells were re-suspended in 100 μL/well of PBS. Cells were then analyzed with FACSVerse™ and mean fluorescence intensity were determined. Full binding curves were generated on the CD39 expressing cells by testing a range of antibody concentrations. Apparent affinity was determined for each antibody using Prism software.

KW27-6 = biological target: T5, KW27-6 (human, UniProt P49961 1-510); test: FACS, HEK293F cells expressing mutant-EGFP
T5 construct: on transfected HEK-293F cells; also called human CD39 mutant KW27-6; not shown: C-terminal EGFP (vector pCMV3-GFPSpark) and any linker to it
T5 sequence: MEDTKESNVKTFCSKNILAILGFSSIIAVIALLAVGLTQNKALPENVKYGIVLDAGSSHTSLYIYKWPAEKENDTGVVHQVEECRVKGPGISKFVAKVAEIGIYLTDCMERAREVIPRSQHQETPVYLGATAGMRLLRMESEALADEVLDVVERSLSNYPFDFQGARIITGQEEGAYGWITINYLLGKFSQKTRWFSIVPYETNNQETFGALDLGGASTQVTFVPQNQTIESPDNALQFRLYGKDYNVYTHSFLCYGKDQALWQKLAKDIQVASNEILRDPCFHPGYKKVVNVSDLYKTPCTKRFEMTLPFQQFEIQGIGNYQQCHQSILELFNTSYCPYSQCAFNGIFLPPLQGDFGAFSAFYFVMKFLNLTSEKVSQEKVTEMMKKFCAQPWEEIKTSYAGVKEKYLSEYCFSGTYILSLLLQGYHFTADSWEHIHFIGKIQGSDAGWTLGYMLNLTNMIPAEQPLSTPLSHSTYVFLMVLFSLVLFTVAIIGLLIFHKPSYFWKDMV
Protocol: Briefly, the human CD39 mutants were generated by gene synthesis and then cloned into an expression vector pCMV3-GFPSpark. The vectors containing the validated mutated sequences were prepared and transfected into HEK293F cells. Three days post transfection, the cells were collected to testing EGFP for transgene expression. A range of dosages of antibodies (start from 100 nM, 3-folds dilution, 11 points) were tested on the 20 generated mutants and stained by AlexFluor647 labelled anti-hIgG by FACS. Antibody binding was descripted as relative binding which is derived from AlexFluor647 intensity divided by GFP intensity.

T1 sequence (P01137 279-390 limits assumed): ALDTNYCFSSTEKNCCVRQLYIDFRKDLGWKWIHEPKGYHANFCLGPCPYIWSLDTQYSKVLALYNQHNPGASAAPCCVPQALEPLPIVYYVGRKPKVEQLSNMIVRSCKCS

- IC50 (human TGFβ1 [1]): 580 pM
- EC50 (human TGFβ1 [2]): 17 pM
B1: Soluble TGFβ trap (i.e. TGFβRII) (receptor, UniProt P37173 24-159, looked up)
chain: IPPHVQKSVNNDMIVTDNNGAVKFPQLCKFCDVRFSTCDNQKSCMSNCSITSICEKPQEVCVAVWRKNDENITLETVCHDPKLPYHDFILEDAASPKCIMKEKKKPGETFFMCSCSSDECNDNIIFSEEYNTSNPD
notes: construct not described; also called TGFβ trap control

- EC50 (cynomolgus CD39): 2710 pM
- ATPase activity inhibition (IC50), MOLP-8 cells (human CD39 [3]): 210 pM
- ATPase activity inhibition (IC50), SK-MEL-5 cells (human CD39 [3]): 100 pM
- EC50 (human CD39 [4]): 940 pM
- EC50 (human CD39 [5]): 490 pM
- EC50 (human CD39 [6]): 110 pM
B2: I394 (antibody, V domains shown)
VH: QVQLVQSGAEVKKPGASVKVSCKASGYTFKSYEMHWVRQAPGQGLEWMGRINPSVGSTWYAQKFQGRVTMTRDTSTSTVYMELSSLRSEDTAVYYCARGKREGGTEYLRKWGQGTLVTVSS
VL: EIVLTQSPGTLSLSPGERATLSCRASQSVASSYLAWYQQKPGQAPRLLIYGASNRHTGIPDRFSGSGSGTDFTLTISRLEPEDFAVYYCQQYHNAITFGGGTKVEIK

- binding result (mouse CD39): no binding (tested: 30 µg/ml)
- binding result (KW27-6): no binding (tested: 100 nM)
B3: 9-8B (antibody, V domains shown)
VH: QIQLVQSGPELKKPGETVKISCKASGYTFTHYGMNWVKQAPGKGLKWMGWINTYTGELTYADDFKGRFAFSLETSASTAYLQINNLKNEDTATYFCARRAYYRYDYVMDYWGQGTSVTVSS
VL: DIVMTQSQKFMSTSVGDRVSVTCKASHNVGTNVAWYQQKPGQSPKALIYSASYRYSGVPGRFTGSGSGTDFTLTISNVQSEDLAEYFCHQYNNYPYTFGGGTKLEIK
notes: also called Antibody 9-8B
